Measured values as given in patent US10774143 (LA JOLLA INSTITUTE FOR ALLERGY AND IMMUNOLOGY, dated 2020).

B1: Myc-tagged SLAT putative EF-hand domain (other)
chain: MALRKELLKSIWYAFTALDVEKSGKVSKSQLKVLSHNLYTVLHIPHDPVALEEHFRDDDDGPVSSQGYMPYL
notes: not shown: Myc tag downstream of the insert (pEF-Myc-His A/C vector)

Columns and labels:
[1] = biological target: SWAP-70-like adaptor of T cells (SLAT), endogenous mouse protein (mouse) (UniProt Q8C2K1); assay: co-IP of SLAT and IP3R1 from CD4+ T cells pre-incubated with TAT protein, densitometry against control TAT-HA
[2] = biological target: SWAP-70-like adaptor of T cells (SLAT), endogenous mouse protein (mouse) (UniProt Q8C2K1); assay: cell-based or functional assay
[3] = biological target: T1, Flag-tagged IP3R1-f2.1 (residues 346-490) (Homo sapiens (Human), UniProt Q14643 346-490); assay: co-IP from Jurkat-TAg cells cotransfected with Flag-IP3R1-f2.1
T1 construct: not shown: Flag tag

Molecule | percent reduction of the SLAT-IP3R1 interaction [1] | anti-CD3/CD28-stimulated IFNγ production by CD4+ T cells (ELISA), reduction [2] | binding result [3]
TAT-HA-2.1 Δ18 fusion protein (TAT-HA fused to IP3R1 residues 346-490 deleted of residues 400-417) (from UniProt Q14643 346-490) | 20% | 15 to 20% | –
B1 | – | – | binds
